Values of other authors as cited in publication PMC3982939.

Experiments:
guanylin (Homo sapiens) = guanylin (Homo sapiens) (UniProt Q02747)
[1] = biological target: uroguanylin (Homo sapiens) (UniProt Q16661)

- Kd (guanylin (Homo sapiens)): 10 nM
- Kd [1]: 1 nM
Substance: Guanylyl cyclase C ECD (from UniProt P25092)
